The assay deals with humanized variant of IPN002 (hu-IPN002). The experiment in a line: competition ELISA; competitor: biotin-Tau 13-24 on hu-IPN002.

Ends that are not written are not given here.

B1: Peptide 1 (Tau amino acids 13-24) (peptide)
peptide: DHAGTYGLGDRK
modifications: also: biotinylated, position not given here, also used non-biotinylated
The molecule B1 showed an IC50 (read off the curve) of 400 nM.

Source of the values: patent publication US20160122421A1.
